In patent US20030114404:

How the values were obtained:
[1] = system: T1, VEGF165 (Homo sapiens), P15692-4; assay: filter; conditions: 2'-F pyrimidines; 37 C
T1 sequence: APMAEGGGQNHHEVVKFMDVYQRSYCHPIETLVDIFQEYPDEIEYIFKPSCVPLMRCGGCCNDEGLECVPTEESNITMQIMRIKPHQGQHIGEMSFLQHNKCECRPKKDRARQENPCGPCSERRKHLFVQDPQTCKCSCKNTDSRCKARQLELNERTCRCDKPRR

VEGF, P15692-4 = system: T2, VEGF, P15692-4; assay: cell_activity; conditions: NX278 (dialkylglycerol, 2'-NH2, 2'-OMe, PS) embedded in DSPC:cholesterol liposome; KSY-1 Kaposi's sarcoma cell proliferation; HUVEC IC50 about 300 nM (p159)
T2 sequence: T1 sequence

Sequence	Kd [1] [pM]	IC50 (VEGF, P15692-4) [pM]
GGGAGGACGAUGCGGAGAAUCAGUGAAUGCUUAUAAAUCUCGYGUCAGACGACUCGCCCGA [VT30.3]	5	
GGGAGGACGAUGCGGAYCAACCGAUUGACGUUAUGGGACGCUGGUCAGACGACUCGCCCGA [VP30.5]	8	
GGGAGGACGAUGCGGCGGYACUUUGGAAGAAUUGAAUUUCCCGCUCAGACGACUCGCCCGA [VP30.26]	10	
GGGAGGACGAUGCGGUAGGAAGAAUUGGAAGCGCAUUUUCCUCGYCAGACGACUCGCCCGA [VP30.22]	20	
GGGAGGACGAUGCGGYGAACCGAUGGAAUUUUUGGACGCUCGCCUCAGACGACUCGCCCGA [VP30.2]	10	
TTTTACCCUGAUGGUAGACGCCGGGGUGTTTTT [NX278-Liposome]		100000
